In the assay the target is SecYEG labeled at SecY residue 292 with AF488 (E. coli) (UniProt P0AGA2). Nature of the assay: FRET or BRET.

Consider “SecA-PhoA chimera labeled at PhoA residue 2 with AF647”, for which the FRET efficiency is 0.25. Under “SecA-PhoA chimera labeled at PhoA residue 22 with AF647” stands 0.46; under “SecA-PhoA chimera labeled at PhoA residue 37 with AF647”, 0.24. Substance “SecA-PhoA chimera labeled at PhoA residue 45 with AF647” registered an FRET efficiency of 0.3.

Source of the values: publication PMC10639101.
